Reference: patent publication US20220324928, “Zinc Finger Protein Transcription Factors for Repressing Alpha-Synuclein Expression” (Sangamo Therapeutics, Inc., published 2022)

Legend:
Assay in all cases: cell_activity; SNCA mRNA repression at highest dose
Settings in all cases: tags: NLS, C-terminal KOX1 KRAB
ZFP-TF SBS-82150 = ZFP-TF SBS-82150 (Artificial Sequence)
ZFP-TF SBS-82090 = ZFP-TF SBS-82090 (Artificial Sequence)
ZFP-TF SBS-82197 = ZFP-TF SBS-82197 (Artificial Sequence)
ZFP-TF SBS-82215 = ZFP-TF SBS-82215 (Artificial Sequence)
ZFP-TF SBS-82294 = ZFP-TF SBS-82294 (Artificial Sequence)
ZFP-TF SBS-82190 = ZFP-TF SBS-82190 (Artificial Sequence)
ZFP-TF SBS-82225 = ZFP-TF SBS-82225 (Artificial Sequence)
ZFP-TF SBS-82092 = ZFP-TF SBS-82092 (Artificial Sequence)
ZFP-TF SBS-82107 = ZFP-TF SBS-82107 (Artificial Sequence)
ZFP-TF SBS-82107 (Artificial Sequence), sequence (chain, as listed by the source): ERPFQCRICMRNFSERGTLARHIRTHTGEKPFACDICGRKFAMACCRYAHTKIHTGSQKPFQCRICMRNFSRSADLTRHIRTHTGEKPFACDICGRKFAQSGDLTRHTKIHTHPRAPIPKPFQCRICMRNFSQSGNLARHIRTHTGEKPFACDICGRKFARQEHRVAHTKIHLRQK

ZFP-TF SBS-82190 (Artificial Sequence), sequence (chain, as listed by the source): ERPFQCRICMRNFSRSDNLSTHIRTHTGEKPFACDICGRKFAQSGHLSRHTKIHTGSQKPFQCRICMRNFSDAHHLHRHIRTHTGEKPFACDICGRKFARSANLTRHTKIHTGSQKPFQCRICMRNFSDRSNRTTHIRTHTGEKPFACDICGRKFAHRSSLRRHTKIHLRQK
ZFP-TF SBS-82215 (Artificial Sequence), sequence (chain, as listed by the source): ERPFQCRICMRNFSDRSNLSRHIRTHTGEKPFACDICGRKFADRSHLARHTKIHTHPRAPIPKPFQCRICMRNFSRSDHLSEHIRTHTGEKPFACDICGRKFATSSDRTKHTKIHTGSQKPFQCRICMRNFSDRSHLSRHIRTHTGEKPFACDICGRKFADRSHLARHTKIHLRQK
ZFP-TF SBS-82197 (Artificial Sequence), sequence (chain, as listed by the source): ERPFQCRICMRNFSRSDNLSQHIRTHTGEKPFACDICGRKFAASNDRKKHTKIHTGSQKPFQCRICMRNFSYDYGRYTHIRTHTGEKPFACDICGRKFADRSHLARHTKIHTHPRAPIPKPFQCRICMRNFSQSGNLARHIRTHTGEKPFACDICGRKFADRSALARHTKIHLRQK
ZFP-TF SBS-82294 (Artificial Sequence), sequence (chain, as listed by the source): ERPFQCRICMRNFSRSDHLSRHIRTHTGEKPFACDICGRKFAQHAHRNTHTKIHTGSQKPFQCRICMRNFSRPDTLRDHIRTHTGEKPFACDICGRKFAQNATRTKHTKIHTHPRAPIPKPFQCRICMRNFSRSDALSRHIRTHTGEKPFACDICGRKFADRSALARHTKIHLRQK
ZFP-TF SBS-82150 (Artificial Sequence), sequence (chain, as listed by the source): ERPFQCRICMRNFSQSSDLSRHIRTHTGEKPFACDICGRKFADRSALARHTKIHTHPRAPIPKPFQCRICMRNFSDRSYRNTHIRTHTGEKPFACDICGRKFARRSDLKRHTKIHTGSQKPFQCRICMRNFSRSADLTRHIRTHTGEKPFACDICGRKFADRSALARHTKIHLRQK
ZFP-TF SBS-82225 (Artificial Sequence), sequence (chain, as listed by the source): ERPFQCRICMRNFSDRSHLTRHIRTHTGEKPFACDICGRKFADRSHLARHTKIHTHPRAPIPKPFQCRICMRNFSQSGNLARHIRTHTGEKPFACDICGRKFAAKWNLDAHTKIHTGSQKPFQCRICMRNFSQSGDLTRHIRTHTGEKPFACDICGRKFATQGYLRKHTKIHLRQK
ZFP-TF SBS-82090 (Artificial Sequence), sequence (chain, as listed by the source): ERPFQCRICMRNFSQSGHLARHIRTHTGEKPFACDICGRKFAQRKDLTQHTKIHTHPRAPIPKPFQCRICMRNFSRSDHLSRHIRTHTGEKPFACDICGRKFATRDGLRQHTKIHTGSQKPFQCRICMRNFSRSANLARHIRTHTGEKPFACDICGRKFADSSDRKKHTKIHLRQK
ZFP-TF SBS-82092 (Artificial Sequence), sequence (chain, as listed by the source): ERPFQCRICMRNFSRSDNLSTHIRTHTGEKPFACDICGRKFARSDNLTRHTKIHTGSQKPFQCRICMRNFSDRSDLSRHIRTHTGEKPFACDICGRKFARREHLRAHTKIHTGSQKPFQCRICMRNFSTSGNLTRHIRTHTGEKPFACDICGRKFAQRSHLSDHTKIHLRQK

B1: SNCA site 82150 (dsDNA)
DNA 1: CGTCGCGGCGCTCGGTCGCTC
DNA 2: GAGCGACCGAGCGCCGCGACG
- activity (ZFP-TF SBS-82150): ≥ 95 % repression

B2: SNCA site 82090 (dsDNA)
DNA 1: ATCCGAGATAGGGACGAGGAG
DNA 2: CTCCTCGTCCCTATCTCGGAT
- activity (ZFP-TF SBS-82090): ≥ 95 % repression

B3: SNCA site 82197 (dsDNA)
DNA 1: CGTCGAATGGCCACTCCCAGT
DNA 2: ACTGGGAGTGGCCATTCGACG
- activity (ZFP-TF SBS-82197): ≥ 95 % repression

B4: SNCA site 82215 (dsDNA)
DNA 1: AGGCGGCACCCGGGGGGGACT
DNA 2: AGTCCCCCCCGGGTGCCGCCT
- activity (ZFP-TF SBS-82215): ≥ 95 % repression

B5: SNCA site 82294 (dsDNA)
DNA 1: GGTCGTGGGCACCGGGAGGGG
DNA 2: CCCCTCCCGGTGCCCACGACC
- activity (ZFP-TF SBS-82294): ≥ 95 % repression

B6: SNCA site 82190 (dsDNA)
DNA 1: CGCTCACGAGGGTGGAAAGG
DNA 2: CCTTTCCACCCTCGTGAGCG
- activity (ZFP-TF SBS-82190): ≥ 95 % repression

B7: SNCA site 82225 (dsDNA)
DNA 1: GAGCGCACAGGAAGGGCGGAG
DNA 2: CTCCGCCCTTCCTGTGCGCTC
- activity (ZFP-TF SBS-82225): ≥ 95 % repression

B8: SNCA site 82092 (dsDNA)
DNA 1: CCGAGATAGGGACGAGGAGC
DNA 2: GCTCCTCGTCCCTATCTCGG
- activity (ZFP-TF SBS-82092): ≥ 95 % repression

B9: SNCA site 82107 (dsDNA)
DNA 1: CAGGGAAAGCAGCGAGCGCCG
DNA 2: CGGCGCTCGCTGCTTTCCCTG
- activity (ZFP-TF SBS-82107): ≥ 95 % repression
